Measurements published in article PMC8826744 (2022).

B1: farletuzumab-FuG1 (antibody, V domains shown)
VH: EVQLVESGGGVVQPGRSLRLSCSASGFTFSGYGLSWVRQAPGKGLEWVAMISSGGSYTYYADSVKGRFAISRDNAKNTLFLQMDSLRPEDTGVYFCARHGDDPAWFAYWGQGTPVTVSS
VL: DIQLTQSPSSLSASVGDRVTITCSVSSSISSNNLHWYQQKPGKAPKPWIYGTSNLASGVPSRFSGSGSGTDYTFTISSLQPEDIATYYCQQWSSYPYMYTFGQGTKVEIK
B2: farletuzumab-cFuG1 (antibody, V domains shown)
VH: B1 VH
VL: B1 VL

Experiments:
[1] = molecular target: T1, recombinant furin, biotinylated (UniProt P09958 27-794, biotin); experiment: BLI
T1 sequence (P09958 108-715): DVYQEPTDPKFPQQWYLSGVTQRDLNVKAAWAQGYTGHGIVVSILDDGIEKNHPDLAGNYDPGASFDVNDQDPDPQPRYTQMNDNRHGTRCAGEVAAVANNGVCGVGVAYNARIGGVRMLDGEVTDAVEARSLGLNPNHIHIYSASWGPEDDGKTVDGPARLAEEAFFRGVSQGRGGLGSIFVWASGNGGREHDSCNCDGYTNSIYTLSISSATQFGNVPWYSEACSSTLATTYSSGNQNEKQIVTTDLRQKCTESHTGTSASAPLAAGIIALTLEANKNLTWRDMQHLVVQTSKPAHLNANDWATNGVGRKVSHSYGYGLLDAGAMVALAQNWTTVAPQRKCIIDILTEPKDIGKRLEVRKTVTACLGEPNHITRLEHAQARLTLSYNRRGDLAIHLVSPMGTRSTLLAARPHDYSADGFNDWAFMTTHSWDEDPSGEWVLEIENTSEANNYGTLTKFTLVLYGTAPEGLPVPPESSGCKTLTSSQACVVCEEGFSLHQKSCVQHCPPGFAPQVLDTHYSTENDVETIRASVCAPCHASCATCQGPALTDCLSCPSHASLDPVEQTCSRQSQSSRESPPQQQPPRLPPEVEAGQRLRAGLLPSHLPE

[2] = molecular target: T1, recombinant furin, biotinylated; experiment: BLI; remark: listed apart in the source

Binder | koff [1] | Kd [2]
B1 | 8.65e-05 s⁻¹ | 33 nM
B2 | 0.000312 s⁻¹ | 7.5 nM
